Measured values as given in patent US20260108588A1, “A COMPLEX COMPRISING A ALPHA-LACTALBUMIN AND A FATTY ACID OR LIPID FOR USE IN THE TREATMENT OR PREVENTION OF CANCER” (LINNANE PHARMA AB, priority 2022, published 2026).

B1: HAMLET: tumoricidal unfolded protein-lipid complex of partially unfolded human α-lactalbumin and oleic acid (protein, UniProt P00709 20-142, looked up)
Alpha-lactalbumin: KQFTKCELSQLLKDIDGYGGIALPELICTMFHTSGYDTQAIVENNESTEYGLFQISNKLWCKSSQVPQSRNICDISCDKFLDDDITDDIMCAKKILDIKGIDYWLAHKALCTEKLEQWLCEKL
modifications: complexed with oleic acid

Legend:
[1] = system: DLD1 cells; assay: Cell death assays (Prestoblue and ATPlite); format: cell-based, human; conditions: 7, 21 and 35 μM each, FIG. 12g-i
Method: Two assays were used as an indirect measure of cell death. Luminescence-based ATPlite™ kit (Perkin Elmer) as well as the Prestoblue assay (ThermoFisher Scientific). Cells (5×10^4 cells/well) were seeded in serum-free RPMI-1640 on 96-well plates and treated with BAMLET and alpha1-oleate at different concentration (7, 21, and 35 μM) and incubated for one hour. Afterward, FCS was added at concentration of 5% and the cells were continuously incubated for two hours at 37° C., at the end of which the two kits were used according to manufactures' instructions. Luminescence and fluorescence were measured using a microplate reader (Infinite F200, Tecan). The experiments were performed in triplicate and repeated twice.

[2] = system: bladder cancer; conditions: patients; cited from earlier work
[3] = system: tumor cells; conditions: cited from earlier work
[4] = system: skin papillomas; conditions: topical application; cited from earlier work
[5] = system: bladder cancer; conditions: local instillations; cited from earlier work

Row | Molecule | tumoricidal effect, BAMLET compared with alpha1-oleate [1] | therapeutic efficacy in bladder cancer [2] | tumor cell killing in vitro [3] | effect on skin papillomas [4] | tumor size in bladder cancer [5]
1 | alpha1-oleate: HAMLET family member formed by the N-terminal alpha-helical peptide (aa 1-39) of alpha-lactalbumin and oleate [reference compound] | similar | has shown therapeutic efficacy | – | – | –
2 | B1 | – | – | kills many types of tumor cells | removed or reduced skin papillomas | caused a reduction in tumor size
